Assay [1] has as its target T1, GST-fused human PPARγ-LBD (human).
T1 construct: Kit protein, detected through a terbium-labeled anti-GST antibody
The assay is described as follows: AlphaScreen or HTRF; LanthaScreen TR-FRET coregulator peptide assay; serial concentrations of F12016 with GST-PPARγ-LBD, terbium-labeled anti-GST antibody and fluorescein-labeled peptide, 4 h; coactivator data as percent of the maximum of rosiglitazone. The settings on record: both partners purified. Background: Bead proximity is the source of the signal in Alpha formats.

The target of assay [2] is T1, GST-fused human PPARγ-LBD. The assay is described as follows: AlphaScreen or HTRF; LanthaScreen TR-FRET coregulator peptide assay; serial concentrations of rosiglitazone with GST-PPARγ-LBD, terbium-labeled anti-GST antibody and fluorescein-labeled peptide, 4 h; 520 nm/495 nm ratio. The settings on record: both partners purified.

No end group written: not given here.

T1 sequence (P37231 whole entry, the tested form may be a part): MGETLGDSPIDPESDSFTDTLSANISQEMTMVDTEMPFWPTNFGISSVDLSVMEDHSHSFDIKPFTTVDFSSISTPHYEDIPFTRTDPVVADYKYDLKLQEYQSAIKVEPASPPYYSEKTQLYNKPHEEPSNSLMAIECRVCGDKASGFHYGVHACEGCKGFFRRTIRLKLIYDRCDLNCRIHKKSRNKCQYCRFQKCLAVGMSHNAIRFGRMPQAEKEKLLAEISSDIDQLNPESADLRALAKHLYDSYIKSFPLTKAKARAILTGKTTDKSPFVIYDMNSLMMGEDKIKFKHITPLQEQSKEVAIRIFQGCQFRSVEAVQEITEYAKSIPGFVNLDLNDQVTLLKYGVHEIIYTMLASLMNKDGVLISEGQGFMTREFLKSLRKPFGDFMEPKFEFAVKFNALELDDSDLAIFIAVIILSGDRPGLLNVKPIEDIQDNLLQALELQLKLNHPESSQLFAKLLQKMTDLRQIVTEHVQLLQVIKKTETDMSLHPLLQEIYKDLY

Consider NTKNHPMLMNLLKDNPAQD (also: fluorescein label, position not given here), for which the “efficacy (maximum recruitment, % of rosiglitazone), with F12016” value in assay [1] is 17%. The “efficacy (maximum recruitment, % of rosiglitazone), with rosiglitazone” value in assay [2] is 100%.
For VTLTSPLLVNLLQSDISAG (also: fluorescein label, position not given here) [nuclear receptor coactivator 250 (RAP250) peptide, fluorescein-labeled], the “efficacy (maximum recruitment, % of rosiglitazone), with F12016” value in assay [1] was determined as 25%. Further, the “efficacy (maximum recruitment, % of rosiglitazone), with rosiglitazone” value in assay [2] worked out at 100%.
Turning to EAEEPSLLKKLLLAPANTQ (also: fluorescein label, position not given here) [PPARγ coactivator 1α (PGC-1α) peptide, fluorescein-labeled], in assay [1], the “efficacy (maximum recruitment, % of rosiglitazone), with F12016” value was 57%. The “efficacy (maximum recruitment, % of rosiglitazone), with rosiglitazone” value in assay [2] stood at 100%.

Source of the values: PMC4381330, “Identification of a novel selective agonist of PPARγ with no promotion of adipogenesis and less inhibition of osteoblastogenesis” (Scientific Reports, 2015).
